Assay results published in US20190105378.

Target: FLAG-TEV recognition sequence-granzyme B AA21-240 fusion whose recognition site (SEQ ID NO: 6) has a G instead of Q, P10144
Sequence (P10144 whole entry, looked up, the tested form may be a part): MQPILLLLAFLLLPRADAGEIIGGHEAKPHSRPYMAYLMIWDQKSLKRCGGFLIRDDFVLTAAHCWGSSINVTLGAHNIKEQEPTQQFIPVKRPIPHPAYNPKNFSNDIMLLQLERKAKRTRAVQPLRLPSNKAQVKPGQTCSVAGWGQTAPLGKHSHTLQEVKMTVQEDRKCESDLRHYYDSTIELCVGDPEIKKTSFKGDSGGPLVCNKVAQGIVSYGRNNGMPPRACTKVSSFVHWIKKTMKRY

B1: tobacco etch virus protease with N-terminal FLAG sequence (product of plasmid pSTdna 1023) (protein)
chain: MDYKDDDDKGDYKDDDDKGGGTGESLFKGPRDYNPISSTICHLTNESDGHTTSLYGIGFGPFIITNKHLFRRNNGTLLVQSLHGVFKVKNTTTLQQHLIDGRDMIIIRMPKDFPPFPQKLKFREPQREERICLVTTNFQTKSMSSMVSDTSCTFPSSDGIFWKHWIQTKDGQCGSPLVSTRDGFIVGIHSASNFTNTNNYFTSVPKNFMELLTNQEAQQWVSGWRLNADSVLWGGHKVFMSKPEEPFQPVKEATQLMNELVYSQ
cleavage by TEV: no cleavage by TEV takes place (not shown)
